Test results taken from patent US7238786B2, “Monoclonal antibody cPAM4” (Immunomedics, Inc., priority 2002, dated 2007).
Where a SMILES comes first, the peptide text is derived from it. Side-chain parts run from the residue outwards. The star is where a group is joined. DTPA = O=C(O)CN(CCN(CC(=O)O)CC(=O)O)CCN(CC(=O)O)CC(=O)*; X1 = NC(=S)NN=CC(=O)*

Experiments:
[1] = tested on: CaPan1 tumor; assay: Pre-targeting with bsMAb and radiolabeled peptide-haptens in CaPan1 tumor-bearing mice; conditions: peptide pre-targeted with bsPAM4, 3-Hours
Experimental: Mice were sacrificed at 3 and 24 hours after the administration of peptides and the % ID/g determined for the tumor and various tissues.

[2] = tested on: chronic pancreatitis specimens; assay: Immunohistochemistry of chronic pancreatitis specimens; format: binding, human; conditions: twelve specimens
Text: (§1) These studies have shown the PAM4 reactivity and tissue distribution (both normal and cancer) to be unlike that reported for CA19.9, DUPAN2, SPAN1, Nd2, B72.3, and the Lewis antigens. […] When compared to CA19.9, DUPAN2, and aLe^a, PAM4 appears to be more restricted in its tissue distribution and it is reactive with a higher percentage of pancreatic tumors. Moreover, it gives a greater overall intensity of reaction at equivalent concentrations and is reactive with a higher percentage of cells within the tumors. […] Although it is recognized that specificity is dependent upon the type of assay employed and the range and number of tissues examined, the ability of PAM4 to discriminate between normal and neoplastic pancreatic tissue, its ability to react with a large percentage of the cancer specimens, as well as the high intensity of the reactions, were important rationales for pursuing developmental studies of clinical application.

[3] = tested on: Normal Adult Tissues; assay: Immunoperoxidase staining of normal adult tissues with MAb PAM4; format: binding, human
Text: (§2) Normal pancreatic tissue, including ducts, ductules, acini, and islet cells, were negative for staining. A PAM4 based enzyme immunoassay with tissue homogenates as antigens generally supported the immunohistology data (Table 2). The PAM4 epitope was absent from normal pancreas and other nongastrointestinal tissues. In neoplastic tissues, PAM4 was reactive with twenty one out of twenty five ([…]) pancreatic cancers (Table 3). PAM4 reactivity appeared to correlate with the stage of tumor differentiation. […] Generally, poorly differentiated tumors represent less than 10% of all pancreatic cancers.

[4] = tested on: tumors; assay: Clinical studies with PAM4 MAb: targeting and dosimetry; format: in vivo, human; conditions: patients
[5] = tested on: Normal Adult Tissue Homogenates; assay: PAM4 based enzyme immunoassay with tissue homogenates as antigens; format: binding, human
Text: as §2

[6] = tested on: Neoplastic Tissues; assay: Immunoperoxidase staining of neoplastic tissues with MAb PAM4; format: binding, human
Text: as §2

[7] = tested on: Pancreatic Tumors; assay: Immunohistochemical reactivity of monoclonal antibodies with pancreatic tumors; format: binding, human; parameters: key to Immunohistochemical reactivity: −: Negative; +: 5–20% of tissue is stained; ++: 21–50% of tissue is stained; +++: >50% of tissue is stained
Text: as §2, §1

[8] = tested on: CaPan1; assay: Biodistribution and dosimetry of radiolabeled PAM4, CaPan1 xenograft; conditions: in vivo
Experimental: Initial biodistribution studies of PAM4 were carried out in a series of four different xenografted human pancreatic tumors covering the range of expected differentiation. […] The biodistribution data were used to estimate potential radiation doses to the tumor of 12,230; 10,684; 6,835; and 15,843 cGy/mCi of injected dose to AsPc1, BxPc3, Hs766T and CaPan1, respectively. With an actual maximum tolerated dose (MTD) of 0.7 mCi, PAM4 could provide substantial rad dose to each of the xenografted tumor models. […] Potential radiation doses to the blood from PAM4 were 1.4-4.4 fold lower than from Ag8. […] Importantly, potential radiation doses to non-tumor tissues were minimal.
The biodistribution of PAM4 was compared with an anti-CEA antibody, MN14, using the CaPan1 tumor model. The concentration of PAM4 within the tumor was much greater than the MN14 at early timepoints, yielding tumor:blood ratios at day three of 12.7±2.3 for PAM4 compared to 2.7±1.9 for MN14. […] This was due to a rapid clearance of PAM4 from the tumor, such that at later timepoints similar concentrations of the two antibodies were present within the tumors. A rapid clearance of PAM4 from the tumor was also noted in the BxPc3 and Hs766T but not AsPc1 tumor models. […] Results from studies on the metabolism of PAM4, indicate that after initial binding to the tumor cell, antibody is rapidly released, possibly being catabolized or being shed as an antigen:antibody complex. This might have had unfavorable implications for the use of the antibody in patients except that the blood clearance is also very rapid.
This type of splenic targeting has been observed in the clinical application of the anti-mucin antibodies B72.3 and CC49. […] The latter would require the presence of immune complexes in the blood; however, these were not observed when specimens as early as five minutes and as late as seven days were examined by gel filtration (HPLC, GF-250 column); radiolabeled antibody eluted as native material. The former explanation seems more likely in view of the fact that the CaPan1 tumor produced large quantities of PAM4-reactive antigen, 100 to 1000-fold higher than for the other tumor cell lines examined. […] In any event, splenic targeting can be overcome by increasing the protein dose to 10 ug from the original 2 ug dose. A greater amount of the splenic entrapped antigen presumably was complexed with unlabeled PAM4 rather than radiolabeled antibody. Increasing the protein dose had no adverse effect upon targeting of PAM4 to the tumor or nontumor tissues.

Molecule: CC(=O)N[C@@H](CCCCNC(=O)CN(CCN(CCN(CC(=O)O)CC(=O)O)CC(=O)O)CC(=O)O)C(=O)N[C@@H](Cc1ccc(O)cc1)C(=O)N[C@@H](CCCCNC(=O)CN(CCN(CCN(CC(=O)O)CC(=O)O)CC(=O)O)CC(=O)O)C(=O)N[C@@H](CCCCNC(=O)[C@H](CS)NC(=O)C=NNC(N)=S)C(N)=O [^99mTc-IMP192, metal not drawn] (Ac-K(DTPA)YK(DTPA)K([Cys-X1])-NH2; N-terminus and C-terminus assumed)
- Tumor: Non-Tumor Tissue Ratio, Mean ([1]; Blood): 9.93
- Tumor: Non-Tumor Tissue Ratio, Mean ([1]; Kidney): 8.13
- Tumor: Non-Tumor Tissue Ratio, Mean ([1]; Liver): 16.66
- Tumor: Non-Tumor Tissue Ratio, Mean ([1]; Lung): 15.75
- Tumor: Non-Tumor Tissue Ratio, Mean ([1]; Pancreas): 73.29
- Tumor: Non-Tumor Tissue Ratio, Mean ([1]; Spleen): 14.62
- Tumor: Non-Tumor Tissue Ratio, Mean ([1]; Tumor): 1.00

Molecule: CC(=O)N[C@@H](Cc1ccccc1)C(=O)N[C@@H](CCCCNC(=O)CN(CCN(CCN(CC(=O)O)CC(=O)O)CC(=O)O)CC(=O)O)C(=O)N[C@@H](Cc1ccc(O)cc1)C(=O)N[C@@H](CCCCNC(=O)CN(CCN(CCN(CC(=O)O)CC(=O)O)CC(=O)O)CC(=O)O)C(N)=O [^111In-IMP156, metal not drawn] (Ac-FK(DTPA)YK(DTPA)-NH2; N-terminus and C-terminus assumed)
- Tumor: Non-Tumor Tissue Ratio, Mean ([1]; Blood): 36.47
- Tumor: Non-Tumor Tissue Ratio, Mean ([1]; Bone): 123.24
- Tumor: Non-Tumor Tissue Ratio, Mean ([1]; Kidney): 7.79
- Tumor: Non-Tumor Tissue Ratio, Mean ([1]; Liver): 36.07
- Tumor: Non-Tumor Tissue Ratio, Mean ([1]; Lung): 44.55
- Tumor: Non-Tumor Tissue Ratio, Mean ([1]; Pancreas): 155.55
- Tumor: Non-Tumor Tissue Ratio, Mean ([1]; Spleen): 33.40
- Tumor: Non-Tumor Tissue Ratio, Mean ([1]; Tumor): 1.00
- Tumor: Non-Tumor Tissue Ratio, Mean ([1]; W. Bone): 378.00

B1: PAM4: murine MUC1 monoclonal antibody developed with pancreatic cancer mucin from the xenografted RIP-1 human pancreatic carcinoma as immunogen (antibody, V domains shown)
VL: DIVMTQSPAIMSASPGEKVTMTCSASSSVSSSYLYWYQQKPGSSPKLWIYSTSNLASGVPARFSGSGSGTSYSLTISSMEAEDAASYFCHQWNRYPYTFGGGTKLEIK
VH: EVQLQESGPELVKPGASVKMSCKASGYTFPSYVLHWVKQKPGQGLEWIGYINPYNDGTQYNEKFKGKATLTSDKSSSTAYMELSRLTSEDSAVYYCARGFGGSYGFAYWGQGTLITVSA
- reactivity with chronic pancreatitis specimens [2]: only weakly reactive with three out of twelve
- Staining Reaction ([3]; Colon): + goblet cells
- Staining Reaction ([3]; Duodenum): + goblet cells
- Staining Reaction ([3]; Ileum): + goblet cells
- Staining Reaction ([3]; Jejunum): + goblet cells
- Staining Reaction ([3]; Stomach): + mucus secreting cells
- targeting of lesions [4]: a majority of the lesions were targeted
- uptake in normal tissues [4]: no indication of uptake in normal tissues
- PAM4 reactivity by EIA ([5]; Adrenal, mean from two autopsy specimens): 1.3 ug/g tissues
- PAM4 reactivity by EIA ([5]; Bladder, mean from two autopsy specimens): 4.9 ug/g tissues
- PAM4 reactivity by EIA ([5]; CaPan1 Pancreatic Tumor): 569 ug/g tissues
- PAM4 reactivity by EIA ([5]; Colon, mean from two autopsy specimens): 74.5 ug/g tissues
- PAM4 reactivity by EIA ([5]; Duodenum, mean from two autopsy specimens): 44.7 ug/g tissues
- PAM4 reactivity by EIA ([5]; Esophagus, mean from two autopsy specimens): 8.1 ug/g tissues
- PAM4 reactivity by EIA ([5]; Gallbladder, mean from two autopsy specimens): 5.6 ug/g tissues
- PAM4 reactivity by EIA ([5]; Heart, mean from two autopsy specimens): 3.7 ug/g tissues
- PAM4 reactivity by EIA ([5]; Jejunum, mean from two autopsy specimens): 60.6 ug/g tissues
- PAM4 reactivity by EIA ([5]; Kidney, mean from two autopsy specimens): 6.6 ug/g tissues
- PAM4 reactivity by EIA ([5]; Liver, mean from two autopsy specimens): 0.0 ug/g tissues
- PAM4 reactivity by EIA ([5]; Pancreas, mean from two autopsy specimens): 6.4 ug/g tissues
- PAM4 reactivity by EIA ([5]; Spleen, mean from two autopsy specimens): 3.4 ug/g tissues
- PAM4 reactivity by EIA ([5]; Stomach, mean from two autopsy specimens): 61.3 ug/g tissues
- PAM4 reactivity by EIA ([5]; Testes, mean from two autopsy specimens): 3.9 ug/g tissues
- PAM4 reactivity by EIA ([5]; Thyroid, mean from two autopsy specimens): 3.5 ug/g tissues
- PAM4 reactivity by EIA ([5]; Ureter, mean from two autopsy specimens): 2.6 ug/g tissues
- Positive/Total ([6]; Breast neoplastic tissue): 0/30
- Positive/Total ([6]; Colon neoplastic tissue): 10/26
- Positive/Total ([6]; Kidney neoplastic tissue): 0/4
- Positive/Total ([6]; Liver neoplastic tissue): 0/10
- Positive/Total ([6]; Lung neoplastic tissue): 1/15
- Positive/Total ([6]; Ovarian neoplastic tissue): 0/10
- Positive/Total ([6]; Pancreas neoplastic tissue): 21/25
- Positive/Total ([6]; Prostate neoplastic tissue): 0/4
- Positive/Total ([6]; Stomach neoplastic tissue): 1/5
- specimens reactive with PAM4 by immunohistochemistry ([6]; colorectal cancer specimens): 40%
- Immunohistochemical reactivity, TOTAL (positive/examined) ([7]; all pancreatic tumors): 21/25
- Immunohistochemical reactivity ([7]; pancreatic tumor 1, differentiation W): +++ (+++: >50% of tissue is stained)
- Immunohistochemical reactivity ([7]; pancreatic tumor 2, differentiation M): ++ (++: 21–50% of tissue is stained)
- Immunohistochemical reactivity ([7]; pancreatic tumor 3, differentiation M): + (+: 5–20% of tissue is stained)
- Immunohistochemical reactivity ([7]; pancreatic tumor 4, differentiation M): +++ (+++: >50% of tissue is stained)
- Immunohistochemical reactivity ([7]; pancreatic tumor 5, differentiation M): ++ (++: 21–50% of tissue is stained)
- Immunohistochemical reactivity ([7]; pancreatic tumor 6, differentiation M): + (+: 5–20% of tissue is stained)
- Immunohistochemical reactivity ([7]; pancreatic tumor 7, differentiation M, metastatic tissue): +++ (+++: >50% of tissue is stained)
- Immunohistochemical reactivity ([7]; pancreatic tumor 8, differentiation M): + (+: 5–20% of tissue is stained)
- Immunohistochemical reactivity ([7]; pancreatic tumor 9, differentiation M): ++ (++: 21–50% of tissue is stained)
- Immunohistochemical reactivity ([7]; pancreatic tumor 10, differentiation M, metastatic tissue): ++ (++: 21–50% of tissue is stained)
- Immunohistochemical reactivity ([7]; pancreatic tumor 11, differentiation M): ++ (++: 21–50% of tissue is stained)
- Immunohistochemical reactivity ([7]; pancreatic tumor 12, differentiation M): ++ (++: 21–50% of tissue is stained)
- Immunohistochemical reactivity ([7]; pancreatic tumor 13, differentiation M): + (+: 5–20% of tissue is stained)
- Immunohistochemical reactivity ([7]; pancreatic tumor 14, differentiation M): ++ (++: 21–50% of tissue is stained)
- Immunohistochemical reactivity ([7]; pancreatic tumor 15, differentiation M): +++ (+++: >50% of tissue is stained)
- Immunohistochemical reactivity ([7]; pancreatic tumor 16, differentiation M): + (+: 5–20% of tissue is stained)
- Immunohistochemical reactivity ([7]; pancreatic tumor 17, differentiation M): −
- Immunohistochemical reactivity ([7]; pancreatic tumor 18, differentiation M): ++ (++: 21–50% of tissue is stained)
- Immunohistochemical reactivity ([7]; pancreatic tumor 19, differentiation M): +++ (+++: >50% of tissue is stained)
- Immunohistochemical reactivity ([7]; pancreatic tumor 20, differentiation M): + (+: 5–20% of tissue is stained)
- Immunohistochemical reactivity ([7]; pancreatic tumor 21, differentiation M): +++ (+++: >50% of tissue is stained)
- Immunohistochemical reactivity ([7]; pancreatic tumor 22, differentiation P): + (+: 5–20% of tissue is stained)
- Immunohistochemical reactivity ([7]; pancreatic tumor 23, differentiation P): −
- Immunohistochemical reactivity ([7]; pancreatic tumor 24, differentiation P): −
- Immunohistochemical reactivity ([7]; pancreatic tumor 25, differentiation P): −
- tumors positive ([7]; poorly differentiated pancreatic tumors): one out of four
- pancreatic cancers reactive ([7]; twenty one out of twenty five pancreatic cancers): 85%
- tumors positive ([7]; well and moderately differentiated pancreatic tumors): twenty out of twenty one
- concentration of radiolabeled PAM4 within the CaPan1 tumor on increasing protein dose [8]: more than doubled
- dose to the tumor, fold higher than MN14 [8]: 3.2 fold
- splenic uptake [8]: 3.1-7.5 % ID/g
- tumor:blood ratio [8]: 12.7±2.3
